Substitutions are numbered along the chain they refer to. Names and notes keep the numbering of the source.
B1: 158K: single substitution P158K in SEQ ID NO:2 (protein)
chain: MGPTPTATAAGAAVAAASAAEQAAFRLVGHRNFVRFNPRSDRFQTLAFHHVELWCADAASAAGRFSFALGVPLAARSDLSTGNSAHASLLLRSGSLSLLFTAPYAHGADAATAALPSFSAAAARRFAADHGLAVRAVALRVADAEDAFRASVAAGARKAFGPVDLGRGFRLAEVELYGDVVLRYVSYPDGAAGEPFLPGFEGVASPGAADYGLSRFDHIVGNVPELAPAAAYMAGFTGFHEFAEFTTEDVGTTESGLNSMALANNSENVLLPLNEPVHGTKRRSQIQTFLDHHGGPGVQHIALASDDVLRTLREMRARSAMGGFEFLPPPLSDYYDGVRRCAGDVLTEAQINECQELGVMVDRDDQGVLLQIFTKPVGDRPTFFLEIIQRIGCMEKDEKGQEYQKGGCGGFGKGNFGQLFKSIEDYEKSLEAKQAAAAATAQGS
modifications: Zea mays variant form created by artificial means.
B2: 387L: single substitution I387L in SEQ ID NO:2 (protein)
chain: B1 chain with K158P, I387L
modifications: Zea mays variant form created by artificial means.
B3: 356R: single substitution E356R in SEQ ID NO:2 (protein)
chain: B1 chain with K158P, E356R
modifications: Zea mays variant form created by artificial means.
B4: 340K: single substitution R340K in SEQ ID NO:2 (protein)
chain: B1 chain with K158P, R340K
modifications: Zea mays variant form created by artificial means.
B5: 356K: single substitution E356K in SEQ ID NO:2 (protein)
chain: B1 chain with K158P, E356K
modifications: Zea mays variant form created by artificial means.

System: 4-hydroxyphenylpyruvate dioxygenase (HPPD)
Test: HPPD activity coupled assay with HGD; substrate saturation kinetic parameters (kcat, KM)
Type: biochemical, Z. mays
Details: Table 6
Protocol: Wild type and shuffled variant genes were cloned into pVER7062, a modified version of pET24a(+)(Novagen), which places six histidine residues at the N-terminus of the expressed protein. Vectors were electroporated into E. coli host strain BL21(DE3). Cells were grown at 30 C in rich medium such as 2×YT containing the selection antibiotic, kanamycin. At a density of about 0.6 OD600, IPTG was added to 0.2 mM, the temperature was reduced to 16 C and growth continued for another 24 hrs. Cells were harvested by centrifugation and stored at −80 C. Cell pellets were lysed in BPER (Pierce) protein extraction reagent containing 0.2 mg/ml lysozyme, 1 mM dithiothreitol, protease inhibitor cocktail (Sigma, bacterial cocktail) and endonuclease. Insoluble cellular debris was removed by centrifugation. HPPD protein was purified from the soluble protein solution by affinity chromatography on the nickel form of nitrilotriacetic acid (Ni-NTA) resin (Qiagen). Protein concentrations were determined by the Bradford method, as supplied by Bio-Rad.
HPPD catalyzes the conversion of 4-hydroxyphenylpyruvate (HPP) to homogentisate (FIG. 17). […] However, the product of the ensuing reaction in tyrosine metabolism, maleylacetoacetate, absorbs strongly at 320 nm. Furthermore, the enzyme catalyzing that reaction is also a dioxygenase having similar mechanism and buffer requirements as HPPD, making homogentisate dioxygenase (HGD) an ideal partner in a coupled assay, as shown.
The HDG gene from Pseudomonas aeruginosa (Amaya (2004) Arch Biochem Biophys 421, 135-142) was cloned into pVER7062 and electroporated into E. coli strain BL21(DE3). The enzyme was produced by methods similar to those described for HPPD. The purified enzyme has a KM for homogentisate of 23 μM and a kcat of 100/sec, properties highly suited for instantly converting the homogentisate produced by HPPD to maleylacetoacetate.
HPPD activity was measured by placing an aliquot (e.g., 6 μl) of the substrate HPP at 50-fold the desired final concentration into the wells of a low UV-absorbing assay plate. Reactions were started by adding a mixture (e.g., 294 μl) containing 25 mM Hepes, pH 7, 2 mM ascorbate, 10 μM FeSO4, 1 to 100 μM HPP, 50 nM HGD and 5 to 240 nM HPPD. Absorbance at 320 nm was monitored continuously in a plate-reading spectrophotometer (Spectramax, Molecular Devices).
The catalytic performance of wild-type HPPD and variants generated by shuffling was assessed by determining the substrate saturation kinetic parameters. The Michaelis-Menten kinetics protocol of the Spectramax software was customized for HPP concentrations ranging from 3.33 μM to 100 μM. Reaction rates were measured as described above for each concentration of HPP. The software returns values of KM and Vmax using the Lineweaver-Burke transformation of the Michaelis-Menten equation.

Molecule | Km [µM]
B1 | 2.49
B2 | 2.46
B3 | 2.89
B4 | 2.41
B5 | 2.6

Same assay, conditions: Table 6; single substitutions in SEQ ID NO:2

Molecule | kcat [s⁻¹]
B1 | 0.785
B2 | 1.24
B3 | 1.32
B4 | 1.22
B5 | 1.1

System: 4-hydroxyphenylpyruvate dioxygenase (HPPD)
Test: ON rate ratio: HPPD reaction rate with vs without inhibitor in the 70 to 90 second interval
Type: biochemical, Z. mays
Details: Table 5; tembotrione
Method in brief: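 Indicator of inhibitor on-rate: reaction velocity in the 70 to 90 second window with 4 μM inhibitor divided by that without. Reactions contained 100 μM HPP and 60 or 120 nM HPPD; slower binding gives a larger ratio.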

Molecule | ON ratio (parameters with tembotrione)
B1 | 0.77
B2 | 0.75
B3 | 0.75
B4 | 0.75
B5 | 0.75

System: 4-hydroxyphenylpyruvate dioxygenase (HPPD)
Test: OFF rate ratio: release of inhibitor from pre-formed enzyme-inhibitor complex
Type: biochemical, Z. mays
Details: Table 5; tembotrione
Method in brief: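 Inhibitor release from pre-formed complex (enzyme 7.2 μM, inhibitor 8 μM, 1 h RT) tracked as accelerating HPPD activity at 320 nm over 12 min, coupled via 50 nM HGD with 100 μM HPP at pH 7. OFF rate ratio: steady-state velocity relative to uninhibited initial velocity.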

Molecule | OFF ratio (parameters with tembotrione)
B1 | 0.27
B2 | 0.19
B3 | 0.21
B4 | 0.20
B5 | 0.21

System: 4-hydroxyphenylpyruvate dioxygenase (HPPD)
Test: Insensitivity parameter (ON × OFF) and trait fitness (ON × OFF × kcat/KM or × kcat)
Type: biochemical, Z. mays
Details: DKN (diketonitrile form of isoxaflutole)
Method in brief: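 Trait fitness combines catalysis and insensitivity as kcat/KM × ON rate ratio × OFF rate ratio. The insensitivity parameter is the product of ON and OFF rate ratios, used in place of KD because the ON rate ratio is inverse.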

Molecule | Insensitivity parameter, ON × OFF
B1 | 0.38
B2 | 0.26
B3 | 0.21
B4 | 0.23
B5 | 0.25

Same assay, conditions: DKN (isoxaflutole diketonitrile)

Molecule | ON × OFF × kcat/km fold vs Round 7, variant 9070
B1 | 1.0
B2 | 1.6
B3 | 1.1
B4 | 2.2
B5 | 1.1

Same assay, conditions: Mesotrione; Table 6

Molecule | Insensitivity parameter, ON × OFF
B1 | 0.54
B2 | 0.46
B3 | 0.44
B4 | 0.44
B5 | 0.48

Same assay, conditions: Sulco (sulcotrione)

Molecule | ON × OFF × kcat/km fold vs Round 7, variant 9070
B1 | 0.9
B2 | 1.3
B3 | 1.1
B4 | 1.3
B5 | 1.1

Same assay, conditions: Sulcotrione

Molecule | Insensitivity parameter, ON × OFF
B1 | 0.63
B2 | 0.56
B3 | 0.53
B4 | 0.54
B5 | 0.55

Same assay, conditions: Table 5; tembotrione

Molecule | ON × OFF × kcat, Value
B1 | 10.44
B2 | 4.58
B3 | 5.97
B4 | 6.56
B5 | 6.18

Same assay, conditions: Table 5; tembotrione; fold vs maize wild type HPPD

Molecule | ON × OFF × kcat, Fold vs wt | ON × OFF, fold vs wt
B1 | 9.76 | 40.6
B2 | 4.28 | 27.0
B3 | 5.58 | 30.0
B4 | 6.13 | 28.7
B5 | 5.78 | 31.2

Same assay, conditions: Table 5; tembotrione; insensitivity parameter

Molecule | ON × OFF (parameters with tembotrione)
B1 | 0.21
B2 | 0.14
B3 | 0.15
B4 | 0.15
B5 | 0.16

Same assay, conditions: Tembotrione

Molecule | Insensitivity parameter, ON × OFF
B1 | 0.29
B2 | 0.15
B3 | 0.16
B4 | 0.16
B5 | 0.18

Same assay, conditions: Topra (topramezone)

Molecule | ON × OFF × kcat/km fold vs Round 7, variant 9070
B1 | 1.1
B2 | 1.0
B3 | 1.1
B4 | 1.1
B5 | 0.9

Same assay, conditions: Topramezon

Molecule | Insensitivity parameter, ON × OFF
B1 | 0.37
B2 | 0.21
B3 | 0.24
B4 | 0.22
B5 | 0.23

Same assay, conditions: meso (mesotrione)

Molecule | ON × OFF × kcat/km fold vs Round 7, variant 9070
B1 | 1.0
B2 | 1.3
B3 | 1.1
B4 | 1.3
B5 | 1.2

Same assay, conditions: tembo (tembotrione)

Molecule | ON × OFF × kcat/km fold vs Round 7, variant 9070
B1 | 1.3
B2 | 1.1
B3 | 1.2
B4 | 1.2
B5 | 1.2

System: 4-hydroxyphenylpyruvate dioxygenase (HPPD)
Test: Estimate of kcat from initial rate at saturating hydroxyphenylpyruvate without inhibitor (ON rate ratio assay)
Type: biochemical, Z. mays
Details: Table 5; single substitutions in Round 7 variant 9070 (SEQ ID NO:2); estimate from initial rate at saturating hydroxyphenylpyruvate without inhibitor
Method in brief: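 kcat was estimated from the initial reaction rate with known enzyme level (60 or 120 nM HPPD). Hydroxyphenylpyruvate was at a saturating 100 μM, with no inhibitor present.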

Molecule | kcat [s⁻¹]
B1 | 0.84
B2 | 0.555
B3 | 0.652
B4 | 0.745
B5 | 0.647

— patent publication US11015206B2, “Compositions and methods comprising sequences having hydroxyphenylpyruvate dioxygenase (HPPD) activity” (PIONEER HI-BRED INTERNATIONAL, INC., priority 2014, dated 2021)
